The source of these data is paper PMC5469345, “High Sensitivity Determination of TNF-α for Early Diagnosis of Neonatal Infections with a Novel and Reusable Electrochemical Sensor”.

In this data set the target is TNF-α (UniProt P01375 77-233). The data set can be described thus: electrochemical sensor (CV/EIS/DPV), displacement of aptamer from capture probe; aptamer pre-hybridized to capture probe T1 on gold electrode; 0.01 M PBS, 37 °C; TNF-α incubation in 0.01 M PBS pH 7.4, 37 °C, 2 h (1 h optimal); binding buffer listed as 10 mM Tris-HCl pH 7.4, 10 mM KCl, 10 mM MgCl2; DPV in 10x PBS. The settings on record: protein: commercial; chain copies: 3; single strand; on the sensor pre-hybridized to thiolated capture probe T1 (S1), from which TNF-α displaces it.
Chain of TNF-α (P01375 77-233): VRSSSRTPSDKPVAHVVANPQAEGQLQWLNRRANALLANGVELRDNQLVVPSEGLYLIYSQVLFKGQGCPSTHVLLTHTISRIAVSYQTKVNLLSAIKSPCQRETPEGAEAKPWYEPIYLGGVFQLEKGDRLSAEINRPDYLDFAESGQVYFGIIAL

Regarding TTTTTTTTTTTTTTTTGGTGGATGGCGCAGTCGGCGACAA (ssDNA) [TNF-α aptamer (T2)], the binding result was “binds”.
